Measurements: article PMC10716038, “Talin and kindlin use integrin tail allostery and direct binding to activate integrins” (Nature Structural & Molecular Biology, 2023)
Values belong to the molecule of their own block, whether it stands above or below them.

Key:
[1] = molecular target: integrin β1A cytoplasmic tail (β1-CT), recombinant (UniProt P05556); test: NMR titration; isotope-labelled β1-CT observed; TLN1-F3 and ΔKIND2 (wild type or K402E / Y13A) added together, ternary complex; 20 mM Tris, 200 mM NaCl, 1 mM DTT, pH 7.5, 298 K
[2] = molecular target: ATTO 488-labelled β1-CT (488–β1-CT) (UniProt P05556); test: MST; ATTO 488-labelled β-CT peptide (50–200 nM) held constant, one unlabelled protein titrated; 20 mM Tris pH 7.5, 200 mM NaCl, 1 mM TCEP, 0.05% Tween-20; apparent affinities (near-saturation only)
[3] = molecular target: T1, β1 transmembrane and cytoplasmic tail polypeptide (β1-TM–CT) in nanodiscs (UniProt P05556 726-798, biotin (biotin-maleimide)); test: FACS; 10% PIP2 nanodiscs
T1 chain: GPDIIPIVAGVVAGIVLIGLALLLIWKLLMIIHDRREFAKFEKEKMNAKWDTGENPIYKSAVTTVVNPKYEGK

[4] = molecular target: T2, α5-TM lacking the cytoplasmic domain (tailless α5-TM) in nanodiscs (UniProt P11688 993-1025, biotin (biotin-maleimide)); test: FACS; 10% PIP2 nanodiscs
T2 chain: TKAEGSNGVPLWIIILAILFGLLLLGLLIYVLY

[5] = molecular target: T3, β3 transmembrane and cytoplasmic tail polypeptide (β3-TM–CT) in nanodiscs (UniProt O54890 715-787, biotin (biotin-maleimide)); test: FACS; 10% PIP2 nanodiscs
T3 chain: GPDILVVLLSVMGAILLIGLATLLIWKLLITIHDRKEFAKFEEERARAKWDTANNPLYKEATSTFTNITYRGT

[6] = molecular target: T2, α5-TM lacking the cytoplasmic domain …; test: FACS; 10% PIP3 nanodiscs
[7] = molecular target: T3, β3 transmembrane and cytoplasmic tail …; test: FACS; 10% PIP3 nanodiscs
[8] = molecular target: T4, ATTO 488-labelled β3-CT (488–β3-CT) (UniProt O54890 741-787, ATTO 488 at the N terminus); test: MST; as a7, with a second unlabelled protein present at near-saturating concentration (named in the quantity or in the printed words); apparent constants (Kd,app*); conditions: both partners purified
T4 construct: integrin β3 cytoplasmic tail; source: synthetic peptide (MPIB Core Facility)
T4 peptide (looked up): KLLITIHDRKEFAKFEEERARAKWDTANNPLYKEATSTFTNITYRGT

[9] = molecular target: T1, β1 transmembrane and cytoplasmic tail …; test: FACS; 10% PIP3 nanodiscs

decrease of the signal intensities of the membrane-proximal α-helix of β1-CT (H758–K770), 1:0.8 against 1:0.2, with TLN1-F3 K402E added together [1]: 10%
decrease of the signal intensities of the membrane-proximal α-helix of β1-CT (H758–K770), 1:0.8 against 1:0.2, with TLN1-F3 added together [1]: 30%
Molecule: ΔKIND2^Y13A (domain or fragment)

Kd of the kindlin contribution (fit of concentrations up to 5 µM) [2]: 2900 nM
Kd of the talin contribution (fit of concentrations above 5 µM) [2]: 16000 nM
Molecule: TLN1-F3–ΔKIND2^Y13A fusion protein

apparent Kd (Kd,app*) in the presence of THD1 [8]: 21000 nM
B3: KIND2^Y13A (natural protein, UniProt Q8CIB5 1-680, looked up)
chain: MALDGIRMPDGCAADGTWELSVHVTDLNRDVTLRVTGEVHIGGVMLKLVEKLDVKKDWSDHALWWEKKRTWLLKTHWTLDKCGIQADAKLQFTPQHKLLRLQLPNMKYVKVKVNFSDRVFKAVSDICKTFNIRHPEELSLLKKPRDPTKKKKKKLDDQSEDEALELEGPLIMPGSGSIYSSPGLYSKTMTPTYDAHDGSPLSPTSAWFGDSALSEGNPGILAVSQPVTSPEILAKMFKPQALLDKAKTNQGWLDSSRSLMEQDVKENEALLLRFKYYSFFDLNPKYDAIRINQLYEQAKWALLLEEIECTEEEMMMFAALQYHINKLSIMTSENHLNNSDKEVDEVDAALSDLEITLEGGKTSTILGDITSIPELADYIKVFKPKKLTLKGYKQYWCTFKDTSISCYKSREESSGTPAHQLNLRGCEVTPDVNISGQKFNIKLLIPVAEGMNEIWLRCDNEKQYAHWMAACRLASKGKTMADSSYNLEVQNILSFLKMQHLNPDPQLIPDQITTDVNPECLVSPRYLKKYKSKQITARILEAHQNVAQMSLIEAKMRFIQAWQSLPEFGITHFIARFQGGKREELIGIAYNRLIRMDASTGDAIKTWRFSNMKQWNVNWEIKMVTVEFADEVRLSFICTEVDCKVVHEFIGGYIFLSTRAKDQNESLDEEMFYKLTSGWV
notes: kindlin-2 (KIND2) with Y13A; In FC-RDA a copy labelled with Alexa 647 was the reporter; also called 647–KIND2^Y13A; source: E. coli Rosetta, purified (IMAC, SEC); not shown: His10, N-terminal, cleaved; SUMO, N-terminal, cleaved

IC50 [3]: 131 nM
IC50 [4]: 246 nM
IC50 [5]: 70 nM
IC50 [9]: 54 nM
IC50 [6]: 211 nM
IC50 [7]: 51 nM
B4: THD1^K402E (domain or fragment)
chain: MVALSLKISIGNVVKTMQFEPSTMVYDACRMIRERIPEALAGPPNDFGLFLSDDDPKKGIWLEAGKALDYYMLRNGDTMEYRKKQRPLKIRMLDGTVKTIMVDDSKTVTDMLMTICARIGITNHDEYSLVRELMEEKKDEGTGTLRKDKTLLRDEKKMEKLKQKLHTDDELNWLDHGRTLREQGVEEHETLLLRRKFFYSDQNVDSRDPVQLNLLYVQARDDILNGSHPVSFDKACEFAGFQCQIQFGPHNEQKHKAGFLDLKDFLPKEYVKQKGERKIFQAHKNCGQMSEIEAKVRYVKLARSLKTYGVSFFLVKEKMKGKNKLVPRLLGITKECVMRVDEKTKEVIQEWSLTNIKRWAASPKSFTLDFGDYQDGYYSVQTTEGEQIAQLIAGYIDIILKEKKS

apparent Kd (Kd,app*) in the presence of KIND2 [8]: 76000 nM
B6: THD1^K402E (domain or fragment, UniProt P26039 1-405, looked up)
chain: MVALSLKISIGNVVKTMQFEPSTMVYDACRMIRERIPEALAGPPNDFGLFLSDDDPKKGIWLEAGKALDYYMLRNGDTMEYRKKQRPLKIRMLDGTVKTIMVDDSKTVTDMLMTICARIGITNHDEYSLVRELMEEKKDEGTGTLRKDKTLLRDEKKMEKLKQKLHTDDELNWLDHGRTLREQGVEEHETLLLRRKFFYSDQNVDSRDPVQLNLLYVQARDDILNGSHPVSFDKACEFAGFQCQIQFGPHNEQKHKAGFLDLKDFLPKEYVKQKGERKIFQAHKNCGQMSEIEAKVRYVKLARSLKTYGVSFFLVKEKMKGKNKLVPRLLGITKECVMRVDEKTKEVIQEWSLTNIKRWAASPKSFTLDFGDYQDGYYSVQTTEGEQIAQLIAGYIDIILKEKKS
notes: talin-1 (TLN1) head domain, residues 1-405, with K402E; In FC-RDA a copy labelled with ATTO 565 was the reporter; also called 565–THD1^K402E; source: E. coli (DE3) Rosetta 2, purified (IMAC, SEC); not shown: His10, N-terminal, cleaved; SUMO, N-terminal, cleaved

The remaining lines, values behind:

Molecule: KIND2 lacking the flexible loop in F1 and the PH domain (ΔKIND2) (domain or fragment)
decrease of the signal intensities of the membrane-proximal α-helix of β1-CT (H758–K770), 1:0.8 against 1:0.2, with TLN1-F3 added together [1]: 50%

B1: KIND2^Y13A (natural protein)
chain: MALDGIRMPDGCAADGTWELSVHVTDLNRDVTLRVTGEVHIGGVMLKLVEKLDVKKDWSDHALWWEKKRTWLLKTHWTLDKCGIQADAKLQFTPQHKLLRLQLPNMKYVKVKVNFSDRVFKAVSDICKTFNIRHPEELSLLKKPRDPTKKKKKKLDDQSEDEALELEGPLIMPGSGSIYSSPGLYSKTMTPTYDAHDGSPLSPTSAWFGDSALSEGNPGILAVSQPVTSPEILAKMFKPQALLDKAKTNQGWLDSSRSLMEQDVKENEALLLRFKYYSFFDLNPKYDAIRINQLYEQAKWALLLEEIECTEEEMMMFAALQYHINKLSIMTSENHLNNSDKEVDEVDAALSDLEITLEGGKTSTILGDITSIPELADYIKVFKPKKLTLKGYKQYWCTFKDTSISCYKSREESSGTPAHQLNLRGCEVTPDVNISGQKFNIKLLIPVAEGMNEIWLRCDNEKQYAHWMAACRLASKGKTMADSSYNLEVQNILSFLKMQHLNPDPQLIPDQITTDVNPECLVSPRYLKKYKSKQITARILEAHQNVAQMSLIEAKMRFIQAWQSLPEFGITHFIARFQGGKREELIGIAYNRLIRMDASTGDAIKTWRFSNMKQWNVNWEIKMVTVEFADEVRLSFICTEVDCKVVHEFIGGYIFLSTRAKDQNESLDEEMFYKLTSGWV
IC50 [3]: 98 nM
IC50 [4]: 162 nM
IC50 [5]: 219 nM
IC50 [6]: 128 nM
IC50 [7]: 173 nM

B2: kindlin-2 (KIND2) (natural protein, UniProt Q8CIB5 1-680, looked up)
chain: MALDGIRMPDGCYADGTWELSVHVTDLNRDVTLRVTGEVHIGGVMLKLVEKLDVKKDWSDHALWWEKKRTWLLKTHWTLDKCGIQADAKLQFTPQHKLLRLQLPNMKYVKVKVNFSDRVFKAVSDICKTFNIRHPEELSLLKKPRDPTKKKKKKLDDQSEDEALELEGPLIMPGSGSIYSSPGLYSKTMTPTYDAHDGSPLSPTSAWFGDSALSEGNPGILAVSQPVTSPEILAKMFKPQALLDKAKTNQGWLDSSRSLMEQDVKENEALLLRFKYYSFFDLNPKYDAIRINQLYEQAKWALLLEEIECTEEEMMMFAALQYHINKLSIMTSENHLNNSDKEVDEVDAALSDLEITLEGGKTSTILGDITSIPELADYIKVFKPKKLTLKGYKQYWCTFKDTSISCYKSREESSGTPAHQLNLRGCEVTPDVNISGQKFNIKLLIPVAEGMNEIWLRCDNEKQYAHWMAACRLASKGKTMADSSYNLEVQNILSFLKMQHLNPDPQLIPDQITTDVNPECLVSPRYLKKYKSKQITARILEAHQNVAQMSLIEAKMRFIQAWQSLPEFGITHFIARFQGGKREELIGIAYNRLIRMDASTGDAIKTWRFSNMKQWNVNWEIKMVTVEFADEVRLSFICTEVDCKVVHEFIGGYIFLSTRAKDQNESLDEEMFYKLTSGWV
notes: kindlin-2 (KIND2) without the deletions of ΔKIND2; In FC-RDA a copy labelled with Alexa 647 (647–KIND2) was the reporter; also called 647–KIND2; source: E. coli Rosetta, purified (IMAC, SEC); not shown: His10, N-terminal, cleaved; SUMO, N-terminal, cleaved
apparent Kd (Kd,app*) in the presence of THD1 [8]: 54000 nM
apparent Kd (Kd,app*) in the presence of THD1 K402E [8]: 16000 nM
apparent Kd (Kd,app*) in the presence of THD2 [8]: 27000 nM
apparent Kd (Kd,app*) in the presence of TLN1-F3 [8]: 120000 nM
apparent Kd (Kd,app*) in the presence of TLN2-F3 [8]: 47000 nM

B5: talin-1 head domain (THD1) (domain or fragment, UniProt P26039 1-405, looked up)
chain: MVALSLKISIGNVVKTMQFEPSTMVYDACRMIRERIPEALAGPPNDFGLFLSDDDPKKGIWLEAGKALDYYMLRNGDTMEYRKKQRPLKIRMLDGTVKTIMVDDSKTVTDMLMTICARIGITNHDEYSLVRELMEEKKDEGTGTLRKDKTLLRDEKKMEKLKQKLHTDDELNWLDHGRTLREQGVEEHETLLLRRKFFYSDQNVDSRDPVQLNLLYVQARDDILNGSHPVSFDKACEFAGFQCQIQFGPHNEQKHKAGFLDLKDFLPKEYVKQKGERKIFQAHKNCGQMSEIEAKVRYVKLARSLKTYGVSFFLVKEKMKGKNKLVPRLLGITKECVMRVDEKTKEVIQEWSLTNIKRWAASPKSFTLDFGDYQDGYYSVQTTEGEQIAQLIAGYIDIILKKKKS
notes: talin-1 (TLN1) head domain (F0-F3), residues 1-405; In FC-RDA a copy labelled with ATTO 565 (565–THD1) was the reporter; also called 565–THD1; source: E. coli (DE3) Rosetta 2, purified (IMAC, SEC); not shown: His10, N-terminal, cleaved; SUMO, N-terminal, cleaved
apparent Kd (Kd,app*) in the presence of KIND2 [8]: 102000 nM
apparent Kd (Kd,app*) in the presence of KIND2 Y13A [8]: 218000 nM
